Measurements reported in PMC5758809.
Where a chain is given by its changes, count along the chain named. In names and notes the source's numbering stands.

B1: PKA-thiophosphorylated form of inhibitor-1 (natural protein)
chain: MEQDNSPRKIQFTVPLLEPHLDPEAAEQIRRRRPTPATLVLTSDQSSPEIDEDRIPNPHLKSTLAMSPRQRKKMTRITPTMKELQMMVEHHLGQQQQGEEPEGAAESTGTQESRPPGIPDTEVESRLGTSGTAKKTAECIPKTHERGSKEPSTKEPSTHIPPLDSKGANSV
modifications: thiophosphorylated Thr35
B2: PKA-thiophosphorylated form of inhibitor-1[I10A;F12A] (natural protein)
chain: B1 chain with I10A, F12A
modifications: thiophosphorylated Thr35

Key:
recombinant PP1 = recombinant PP1 (UniProt P62139)
UniProt P62139, sequence (P62139 whole entry): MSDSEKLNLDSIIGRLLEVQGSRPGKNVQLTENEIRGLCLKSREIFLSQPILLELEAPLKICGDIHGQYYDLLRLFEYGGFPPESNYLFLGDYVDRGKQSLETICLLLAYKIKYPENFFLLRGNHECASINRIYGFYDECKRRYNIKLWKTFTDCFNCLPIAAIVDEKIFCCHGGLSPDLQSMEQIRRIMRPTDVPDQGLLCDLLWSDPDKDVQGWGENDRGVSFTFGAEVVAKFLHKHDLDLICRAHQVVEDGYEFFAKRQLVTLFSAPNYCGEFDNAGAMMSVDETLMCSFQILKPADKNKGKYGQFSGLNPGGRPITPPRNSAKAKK

native PP1 (rabbit) = native PP1 (rabbit) (UniProt P62139)

Binder	IC50 for inhibition of recombinant PP1 phosphatase activity ([32P]phosphorylase a as substrate) (recombinant PP1) [nM]	IC50 for inhibition of native PP1 phosphatase activity ([32P]phosphorylase a as substrate) (native PP1 (rabbit)) [nM]
B1	980	19
B2	553	240
